Tests used:
human IgE = human IgE (human, UniProt P01854 1-428); experiment: Biacore, human IgE coupled to a CM5 chip by NHS/EDC, sample protein in flow
Text: Human IgE was immobilized to a CM5 chip (BiaCore) using standard NHS/EDC methods. Sample proteins were dialyzed into HBS buffer overnight, and the dialysis buffer was used as a running buffer for the experiment. Sample proteins were run successively over IgE or ethanolamine coated flow cells, and the data analyzed using the BiaEvaluation software package.

CD28 on monkey PBMC = CD28 on monkey PBMC (monkey); experiment: cell-based or functional assay
human serum albumin = target: T1, human serum albumin (human, UniProt P02768 25-609); experiment: ELISA, 0.5 µg HSA per well, expression lysate, anti-HA-HRP, signal equal to or better than the anti-HSA trimer
T1 construct: also called HSA; HAS
Method: ELISA plate wells were coated with 0.2 μg of CD40L or 0.5 μg of HAS, and 5 μl of the monomer expression clone lysate was applied to each well. The bound monomers (which were produced as a hemagglutinin (HA) fusion) were then detected by anti-HA-HRP conjugated antibody, developed by horse-radish peroxidase enzyme activity, and read at an OD of 450 nm.

human IgE, sequence (P01854 other isoform, or with tags, fused parts or gaps): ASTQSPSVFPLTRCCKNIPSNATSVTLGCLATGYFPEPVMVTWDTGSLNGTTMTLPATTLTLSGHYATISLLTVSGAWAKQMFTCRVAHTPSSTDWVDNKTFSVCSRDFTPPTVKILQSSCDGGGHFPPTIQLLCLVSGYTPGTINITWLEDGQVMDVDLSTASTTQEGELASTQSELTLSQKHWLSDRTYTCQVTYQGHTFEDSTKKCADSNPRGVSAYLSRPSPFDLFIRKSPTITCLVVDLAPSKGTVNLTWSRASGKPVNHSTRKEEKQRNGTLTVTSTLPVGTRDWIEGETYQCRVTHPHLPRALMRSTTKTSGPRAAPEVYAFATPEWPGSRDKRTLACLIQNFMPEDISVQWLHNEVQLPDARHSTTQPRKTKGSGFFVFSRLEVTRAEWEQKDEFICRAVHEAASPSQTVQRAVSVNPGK

B1: recombinant human FcERI protein (receptor, UniProt P12319 26-205, looked up)
chain: VPQKPKVSLNPPWNRIFKGENVTLTCNGNNFFEVSSTKWFHNGSLSEETNSSLNIVNAKFEDSGEYKCQHQQVNESEPVYLEVFSDWLLLQASAEVVMEGQPLFLRCHGWRNWDVYKVIYYKDGEALKYWYENHNISITNATVEDSGTYYCTGKVWQLDYESEPLNITVIKAPREKYWLQ
notes: also called recombinant FcERI; recombinant soluble IgE receptor
Kd (human IgE): 450 nM

B2: CD28-A10 (designed binder)
chain: CGPGRFQCESGQCVPATWVCDGDDDCADGSDEKSCATTAPTCESNQFQCGSGQCLPGTWRCDGVNDCADSSDETGCGRPGPGATSAPAACGPGRFQCNNGNCVPQTLGCDGDNDCGDSSDEANCSAPASEPPGSL
IC50, PBMC assay on monkey cells (CD28 on monkey PBMC): 7 nM

CNPTGKFKCRSGRCVPRESCRCDGVDDCEDNSDEKDCQPHTSLQ (designed binder, HA fusion, tested as expression lysate) [A1_34]
binding result (human serum albumin): binds

From patent publication US20050053973A1 (published 2005)
